The values that follow are results of earlier work, collected in patent publication US7713705B2, “Markers for differential diagnosis and methods of use thereof” (Biosite, Inc., priority 2002, dated 2010).

Read-outs that look alike come from different tables or passages of the source.

The conditions of data set [1]: in animals.
The conditions of data set [2]: bloodstream of rats.
For data set [3] the following is noted: plasma, in mice.

As a reminder, the half-life is the time needed for the level to fall by half in the phase considered. On to Prothrombin fragment 1+2 [F1+2], for which, under “plasma”, the half-life result was “approximately 90 minutes”. Take Platelet factor 4 [PF4]: for the setting “plasma”, the “biphasic half-life, first phase” value is 1 min; the “extended half-life, second phase” value was 20 min; the “half-life extended by the presence of heparin” value was 20 to 40 min. For the same molecule, for the setting “serum”, the “biphasic half-life, first phase” value is 1 min; the “extended half-life, second phase” value is 20 min; the “half-life extended by the presence of heparin” value was 20 to 40 min. Turning to “CK-BB: brain-specific creatine kinase isoform, an 85 kDa cytosolic protein”, under “in vivo”, the half-life was 60 to 300 min. Turning to “S-100β: β subunit of S-100, a 21 kDa cytosolic Ca2+-binding protein; specific to the nervous system”, the biological half-life (in vivo) is 2 hours.

In the case of C-reactive protein [CRP], the half-life result (bloodstream) is on record as “approximately 19 hours”. Consider Platelet-derived growth factor [PDGF], for which, in data set [1], the “biphasic half-life, first phase” value is given as “approximately 5 minutes” and the “biphasic half-life, second phase” value is around 60 min. As to Interleukin-1β [IL-1β], under “in vivo”, the “biphasic physiological half-life, first phase” value was 5 minutes and the “biphasic physiological half-life, second phase” value is reported as 4 hours. As to thrombin-ATIII complex [TAT], the half-life result (bloodstream) is given as “approximately 5 minutes”.

Take Phosphoglyceric acid mutase [PGAM]: in data set [2], the half-life result is given as “less than 2 hours”. Regarding Interleukin-6 [IL-6], the half-life (bloodstream) was 252 min.

For the molecule “Malondialdehyde-modified low-density lipoprotein [MDA-modified LDL]”, in data set [3], the half-life entry is reported as “less than 5 minutes”. Take Tumor necrosis factor α [TNFα]: under “bloodstream”, the half-life result was “approximately 1 hours”.

B1: β-thromboglobulin (protein, UniProt P02775 48-128, looked up)
Beta-thromboglobulin: GKEESLDSDLYAELRCMCIKTTSGIHPKNIQSLEVIGKGTHCNQVEVIATLKDGRKICLDPDAPRIKKIVQKKLAGDESAD
modifications: Beta-thromboglobulin
Regarding B1, the “biphasic half-life, first phase” value (plasma) was 10 min and the “biphasic half-life, first phase” value (serum) was 10 min. For the same molecule, the “extended half-life, second phase” value is 60 min (plasma) and 60 min (serum).

B2: neuron-specific enolase (protein, UniProt P09104 2-434, looked up)
Gamma-enolase: SIEKIWAREILDSRGNPTVEVDLYTAKGLFRAAVPSGASTGIYEALELRDGDKQRYLGKGVLKAVDHINSTIAPALISSGLSVVEQEKLDNLMLELDGTENKSKFGANAILGVSLAVCKAGAAERELPLYRHIAQLAGNSDLILPVPAFNVINGGSHAGNKLAMQEFMILPVGAESFRDAMRLGAEVYHTLKGVIKDKYGKDATNVGDEGGFAPNILENSEALELVKEAIDKAGYTEKIVIGMDVAASEFYRDGKYDLDFKSPTDPSRYITGDQLGALYQDFVRDYPVVSIEDPFDQDDWAAWSKFTANVGIQIVGDDLTVTNPKRIERAVEEKACNCLLLKVNQIGSVTEAIQACKLAQENGWGVMVSHRSGETEDTFIADLVVGLCTGQIKTGAPCRSERLAKYNQLMRIEEELGDEARFAGHNFRNPSVL
Turning to B2, under “in vivo”, the biological half-life is on record as 48 hours.
